This note sets out measurements from IntAct's records for PubMed 23395371.

The labels stand for the following.
B1: Ras-related protein Rab-7L1 (Rattus norvegicus (Rat)), Q63481 (parent)
chain: MGSRDHLFKVLVVGDAAVGKTSLVQRYSQDSFSKHYKSTVGVDFALKVLQWSDSEMVRLQLWDIAGQERFTSMTRLYYRDASACVIMFDVTNATTFSNSQRWKQDLDSKLTLPSGEPVPCLLLANKSDLSPWAVSRDQIDRFSKENGFTGWTETSVKENKNINEAMRVLVEKMMNNSREDIMSSSTQGNYINLQTKPSPGWTCC

The variants in the experiment derive from B1. The settings on record: with lrrk2_human LRRK2, Q5S007.
lrrk2_human LRRK2, Q5S007, sequence (Q5S007 whole entry): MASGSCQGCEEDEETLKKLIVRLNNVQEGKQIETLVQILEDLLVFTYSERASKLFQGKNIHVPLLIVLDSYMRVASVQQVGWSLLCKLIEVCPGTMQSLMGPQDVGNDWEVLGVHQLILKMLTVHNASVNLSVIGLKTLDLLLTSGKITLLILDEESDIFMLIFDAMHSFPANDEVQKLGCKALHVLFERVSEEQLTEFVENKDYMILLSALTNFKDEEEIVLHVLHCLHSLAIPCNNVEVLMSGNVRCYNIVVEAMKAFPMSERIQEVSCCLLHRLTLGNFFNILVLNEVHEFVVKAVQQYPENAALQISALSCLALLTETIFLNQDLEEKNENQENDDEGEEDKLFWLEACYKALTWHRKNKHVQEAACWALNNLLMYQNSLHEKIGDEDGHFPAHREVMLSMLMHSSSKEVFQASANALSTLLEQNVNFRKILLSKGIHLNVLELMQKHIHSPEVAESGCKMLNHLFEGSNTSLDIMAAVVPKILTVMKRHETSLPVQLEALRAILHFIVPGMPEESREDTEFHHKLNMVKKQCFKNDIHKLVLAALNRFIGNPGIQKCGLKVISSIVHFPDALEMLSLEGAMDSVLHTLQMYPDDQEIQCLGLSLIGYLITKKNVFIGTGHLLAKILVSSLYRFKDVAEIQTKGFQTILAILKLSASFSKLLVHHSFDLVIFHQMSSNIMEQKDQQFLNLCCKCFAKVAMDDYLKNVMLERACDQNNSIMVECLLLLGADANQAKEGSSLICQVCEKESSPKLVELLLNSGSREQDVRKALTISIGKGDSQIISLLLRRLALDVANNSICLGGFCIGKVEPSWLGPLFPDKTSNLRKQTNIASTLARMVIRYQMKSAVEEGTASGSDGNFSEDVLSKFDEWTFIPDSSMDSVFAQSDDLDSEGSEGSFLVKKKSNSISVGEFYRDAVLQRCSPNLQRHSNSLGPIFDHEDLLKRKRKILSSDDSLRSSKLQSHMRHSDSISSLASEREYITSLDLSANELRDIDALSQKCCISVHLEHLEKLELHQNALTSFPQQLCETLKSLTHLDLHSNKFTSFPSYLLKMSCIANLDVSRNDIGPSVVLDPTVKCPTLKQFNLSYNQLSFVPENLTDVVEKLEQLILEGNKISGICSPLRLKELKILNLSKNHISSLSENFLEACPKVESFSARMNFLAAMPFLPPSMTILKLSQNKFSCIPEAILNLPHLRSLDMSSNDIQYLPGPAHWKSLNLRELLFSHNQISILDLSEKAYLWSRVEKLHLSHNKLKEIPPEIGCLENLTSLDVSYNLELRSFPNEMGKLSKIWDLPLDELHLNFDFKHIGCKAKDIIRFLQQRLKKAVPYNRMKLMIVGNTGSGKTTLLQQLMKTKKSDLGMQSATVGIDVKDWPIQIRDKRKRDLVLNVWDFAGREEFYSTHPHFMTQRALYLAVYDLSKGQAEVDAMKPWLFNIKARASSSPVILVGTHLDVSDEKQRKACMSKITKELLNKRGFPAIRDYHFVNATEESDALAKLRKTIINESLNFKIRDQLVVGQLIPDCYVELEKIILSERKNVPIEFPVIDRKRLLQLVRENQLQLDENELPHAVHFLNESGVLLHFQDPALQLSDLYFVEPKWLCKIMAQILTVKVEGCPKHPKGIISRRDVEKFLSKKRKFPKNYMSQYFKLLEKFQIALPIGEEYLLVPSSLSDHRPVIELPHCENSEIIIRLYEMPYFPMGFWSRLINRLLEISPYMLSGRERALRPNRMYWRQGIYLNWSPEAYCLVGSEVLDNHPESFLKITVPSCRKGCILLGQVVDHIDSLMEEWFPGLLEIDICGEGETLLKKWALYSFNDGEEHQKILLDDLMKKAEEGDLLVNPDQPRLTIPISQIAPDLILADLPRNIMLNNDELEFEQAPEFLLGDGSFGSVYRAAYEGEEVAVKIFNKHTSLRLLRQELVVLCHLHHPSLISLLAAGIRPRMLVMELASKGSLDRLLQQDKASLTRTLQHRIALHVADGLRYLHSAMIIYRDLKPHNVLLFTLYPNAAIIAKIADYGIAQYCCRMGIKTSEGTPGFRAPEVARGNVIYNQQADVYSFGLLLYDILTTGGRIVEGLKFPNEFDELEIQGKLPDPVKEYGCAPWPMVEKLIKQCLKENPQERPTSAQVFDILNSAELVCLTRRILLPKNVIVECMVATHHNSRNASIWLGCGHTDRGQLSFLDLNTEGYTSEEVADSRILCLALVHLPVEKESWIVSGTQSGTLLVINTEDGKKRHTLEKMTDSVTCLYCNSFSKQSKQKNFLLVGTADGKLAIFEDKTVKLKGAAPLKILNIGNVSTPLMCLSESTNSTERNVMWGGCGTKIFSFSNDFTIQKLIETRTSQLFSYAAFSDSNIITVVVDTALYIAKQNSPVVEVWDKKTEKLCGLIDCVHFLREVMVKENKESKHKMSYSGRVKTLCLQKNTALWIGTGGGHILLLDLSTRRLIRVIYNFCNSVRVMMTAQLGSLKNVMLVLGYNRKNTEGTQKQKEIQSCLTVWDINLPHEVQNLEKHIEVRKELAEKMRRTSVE
Turning to T21N, the “effect of a mutation on the interaction” value is on record as “decreasing interaction”. For Q67L the value was “decreasing interaction”.
